This is an account of results in publication PMC3323732 (Journal of Molecular Biology, 2011).

The data set “SEC” concerns the molecule itself. As to the kind of experiment: SEC. For orientation: SEC sorts molecules by how far they enter the pores of the column.
Data set [1] concerns the target T1, myocilin C-terminal olfactomedin domain (myoc-OLF), cleaved from MBP, wild type (human, UniProt Q99972 228-504).
T1 sequence (looked up): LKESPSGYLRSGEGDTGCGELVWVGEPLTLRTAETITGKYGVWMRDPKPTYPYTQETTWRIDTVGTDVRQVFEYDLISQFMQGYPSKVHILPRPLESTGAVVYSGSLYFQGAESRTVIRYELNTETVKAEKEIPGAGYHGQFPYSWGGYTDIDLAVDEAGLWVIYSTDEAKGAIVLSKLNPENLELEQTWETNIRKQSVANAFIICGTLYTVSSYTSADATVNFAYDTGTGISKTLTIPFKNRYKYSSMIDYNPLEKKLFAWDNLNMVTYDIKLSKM
As to the kind of experiment: seeded fibril formation followed by thioflavin T fluorescence.

Data set [2] concerns the molecule itself. As to the kind of experiment: thioflavin T fluorescence of fibril formation.

Where a chain is given by its changes, count along the chain named. In names and notes the source's numbering stands.

B1: MBP-OLF(245-455) (domain or fragment, human, UniProt Q99972 245-455, looked up)
chain: CGELVWVGEPLTLRTAETITGKYGVWMRDPKPTYPYTQETTWRIDTVGTDVRQVFEYDLISQFMQGYPSKVHILPRPLESTGAVVYSGSLYFQGAESRTVIRYELNTETVKAEKEIPGAGYHGQFPYSWGGYTDIDLAVDEAGLWVIYSTDEAKGAIVLSKLNPENLELEQTWETNIRKQSVANAFIICGTLYTVSSYTSADATVNFAYDT
In the case of B1, the binding result in the data set “SEC” was “binds”.

B2: MBP-OLF(245-504) (domain or fragment, human, UniProt Q99972 245-504, looked up)
chain: CGELVWVGEPLTLRTAETITGKYGVWMRDPKPTYPYTQETTWRIDTVGTDVRQVFEYDLISQFMQGYPSKVHILPRPLESTGAVVYSGSLYFQGAESRTVIRYELNTETVKAEKEIPGAGYHGQFPYSWGGYTDIDLAVDEAGLWVIYSTDEAKGAIVLSKLNPENLELEQTWETNIRKQSVANAFIICGTLYTVSSYTSADATVNFAYDTGTGISKTLTIPFKNRYKYSSMIDYNPLEKKLFAWDNLNMVTYDIKLSKM
As for B2, the binding result in “SEC” is reported as “binds”.

B3: myoc-OLF(Y437H), cleaved from MBP (domain or fragment, human, UniProt Q99972 228-504, looked up)
chain: T1 sequence (looked up) with Y210H
As for B3, the binding result in data set [1] and in data set [2] was “binds” in each case.

B4: MBP-OLF(P370L) (domain or fragment, human, UniProt Q99972 228-504, looked up)
chain: T1 sequence (looked up) with P143L
B4: the binding result in the data set “SEC” is recorded as “binds”.

B5: MBP-OLF(Y437H) (domain or fragment, human, UniProt Q99972 228-504, looked up)
chain: T1 sequence (looked up) with Y210H
With B5, in the data set “SEC”, the binding result was “binds”.
